Results reported in patent US20250002576A1 (FUSION PHARMACEUTICALS, published 2025).

T1: hCLDN18.1 (antigen of the scFv screening) (human, UniProt P56856 28-80)
T1 construct: ELISA or flow cytometry according to the selection strategy
T1 sequence (looked up): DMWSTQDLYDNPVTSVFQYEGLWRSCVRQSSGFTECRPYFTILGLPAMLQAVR

B1: YU574-D03 (antibody, V domains shown)
VH: not shown
VL: DIVMTQSPSSVSASVGDRVTITCRASQGISSWLAWYQQKPGKAPKLLIYAASSLQSGVPSRFSGSGSGTDFTLTISSLQPEDFATYYCQQANSFPLTFGGGTKVDIK
B2: YU574-H09 (antibody, V domains shown)
VH: QVQLVQSGAEVKKPGASVKVSCKASGYTFTSYYMHWVRQAPGQGLEWMGIINPSGGSTSYAQKFQGRVTMTRDTSTSTVYMELSSLRSEDTAVYYCARGGSGFDYWGQGTLVTVSS
VL: not shown
B3: YU575-H03 (antibody, V domains shown)
VH: not shown
VL: QSVLTQPPSVSGAPGQRVTISCTGSSSNIGAGYDVHWYQQLPGTAPKLLIYGNSNRPSGVPDRFSGSKSGTSASLAITGLQAEDEADYYCQSYDSSLSGYVFGTGTKLTVL
B4: YU577-H07 (antibody, V domains shown)
VH: not shown
VL: DIQMTQSPSSVSASVGDRVTITCRASQGISSWLAWYQQKPGKAPKLLIYAASSLQSGVPSRFSGSGSGTDFTLTISSLQPEDFATYYCQQANSFPLTFGGGTKLEIK
B5: YU578-F02 (antibody, V domains shown)
VH: not shown
VL: DIVMTQSPSFLSASVGDRVTITCRASQGISSYLAWYQQKPGKAPKLLIYAASTLQSGVPSRFSGSGSGTEFTLTISSLQPEDFATYYCQQLNSYPITFGQGTKLEIK
B6: YU577-E08 (scFv as screened) (scFv, V domains shown)
VH: QVQLVQSGAEVKKPGASVKVSCKASGYTFTSYYMHWVRQAPGQGLEWMGIINPSGGSTSYAQKFQGRVTMTRDTSTSTVYMELSSLRSEDTAVYYCATRQFDYWGQGTLVTVSS
VL: QSVLTQPPSVSAAPGQKVTISCSGSSSNIGNNYVSWYQQLPGTAPKLLIYENNKRPSGIPDRFSGSKSGTSATLGITGLQTGDEADYYCGTWDSSLSAAVFGGGTKVTVL
B7: YU577-E12 (scFv as screened) (scFv, V domains shown)
VH: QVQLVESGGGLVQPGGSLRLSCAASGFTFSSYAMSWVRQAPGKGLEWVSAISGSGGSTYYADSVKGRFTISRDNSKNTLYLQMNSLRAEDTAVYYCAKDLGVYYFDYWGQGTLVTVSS
VL: DIVMTQSPSFLSASAGDRVTITCRASQGISSYLAWYQQKPGKGPKLLIYAASTLQSGVPSRFSGSGSGTEFTLTISSLQPEDFATYYCQQVNSYPLTFGPGTKVDIK
B8: YU577-H07 (scFv as screened) (scFv, V domains shown)
VH: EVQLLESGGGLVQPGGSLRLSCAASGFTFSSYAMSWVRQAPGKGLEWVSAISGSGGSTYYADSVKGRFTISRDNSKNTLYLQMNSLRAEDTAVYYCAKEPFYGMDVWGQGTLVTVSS
VL: DIQMTQSPSSVSASVGDRVTITCRASQGISSWLAWYQQKPGKAPKLLIYAASSLQSGVPSRFSGSGSGTDFTLTISSLQPEDFATYYCQQANSFPLTFGGGTKLEIK
B9: YU574-D03 (scFv as screened) (scFv, V domains shown)
VH: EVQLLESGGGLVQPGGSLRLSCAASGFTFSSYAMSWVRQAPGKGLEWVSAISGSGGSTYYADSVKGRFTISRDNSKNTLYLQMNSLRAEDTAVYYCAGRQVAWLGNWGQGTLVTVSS
VL: DIVMTQSPSSVSASVGDRVTITCRASQGISSWLAWYQQKPGKAPKLLIYAASSLQSGVPSRFSGSGSGTDFTLTISSLQPEDFATYYCQQANSFPLTFGGGTKVDIK
B10: YU577-B11 (scFv as screened) (scFv, V domains shown)
VH: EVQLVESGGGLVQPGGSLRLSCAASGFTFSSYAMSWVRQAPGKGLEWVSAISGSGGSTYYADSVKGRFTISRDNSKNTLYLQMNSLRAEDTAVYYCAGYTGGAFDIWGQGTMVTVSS
VL: DIQMTQSPSSVSASVGDRVTITCRASQGISSWLAWYQQKPGKAPKLLIYAASSLQSGVPSRFSGSGSGTDFTLTISSLQPEDFATYYCQQANSFPLTFGGGTKLEIK
B11: YU578-D01 (scFv as screened) (scFv, V domains shown)
VH: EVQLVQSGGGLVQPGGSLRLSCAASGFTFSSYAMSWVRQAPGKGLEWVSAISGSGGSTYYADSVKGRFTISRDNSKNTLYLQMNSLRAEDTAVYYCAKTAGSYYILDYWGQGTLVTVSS
VL: DIQLTQSPSSLSASVGDRVTITCRASQGISNYLAWFQQKPGKAPKSLIYAASSLQSGVPSKFSGSGSGTDFTLTISSLQPEDFATYYCQQYNSYPLTFGGGTKVDIK
B12: YU578-F02 (scFv as screened) (scFv, V domains shown)
VH: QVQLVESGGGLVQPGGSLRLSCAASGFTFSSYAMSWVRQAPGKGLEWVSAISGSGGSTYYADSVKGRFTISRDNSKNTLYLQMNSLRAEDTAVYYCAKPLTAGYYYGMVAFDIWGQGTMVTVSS
VL: DIVMTQSPSFLSASVGDRVTITCRASQGISSYLAWYQQKPGKAPKLLIYAASTLQSGVPSRFSGSGSGTEFTLTISSLQPEDFATYYCQQLNSYPITFGQGTKLEIK
B13: YU574-D11 (scFv as screened) (scFv, V domains shown)
VH: QVQLVQSGGGLVQPGGSLRLSCAASGFTFSSYAMSWVRQAPGKGLEWVSAISGSGGSTYYADSVKGRFTISRDNSKNTLYLQMNSLRAEDTAVYYCAGGANGFDPWGQGTLVTVSS
VL: QSVLTQPPSVSGAPGQRVTISCTGSSSNIGAGYDVHWYQQLPGTAPKLLIYGNSNRPSGVPDRFSGSKSGTSASLAITGLQAEDEADYYCQSYDSSLSGLVFGGGTKLTVL
B14: YU574-E07 (scFv as screened) (scFv, V domains shown)
VH: QVQLQESGGGVVQPGRSLRLSCAASGFTFSSYGMHWVRQAPGKGLEWVAVISYDGSNKYYADSVKGRFTISRDNSKNTLYLQMNSLRAEDTAVYYCAKDQRGGLYGMDVWGQGTLVTVSS
VL: QSVLTQPPSASGAPGQRVTISCTGSSSNIGAGYDVHWYQQLPGTAPKLLIYGNSNRPSGVPDRFSGSKSGTSASLAITGLQAEDEADYYCQSYDSSLSGWVFGGGTKLTVL
B15: YU574-H09 (scFv as screened) (scFv, V domains shown)
VH: QVQLVQSGAEVKKPGASVKVSCKASGYTFTSYYMHWVRQAPGQGLEWMGIINPSGGSTSYAQKFQGRVTMTRDTSTSTVYMELSSLRSEDTAVYYCARGGSGFDYWGQGTLVTVSS
VL: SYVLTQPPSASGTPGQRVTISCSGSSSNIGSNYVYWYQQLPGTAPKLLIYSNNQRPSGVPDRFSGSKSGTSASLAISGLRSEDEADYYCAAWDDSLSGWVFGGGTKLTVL
B16: YU575-H03 (scFv as screened) (scFv, V domains shown)
VH: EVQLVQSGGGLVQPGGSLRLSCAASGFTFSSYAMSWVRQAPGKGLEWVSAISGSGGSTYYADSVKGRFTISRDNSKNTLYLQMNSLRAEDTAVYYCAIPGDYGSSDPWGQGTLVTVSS
VL: QSVLTQPPSVSGAPGQRVTISCTGSSSNIGAGYDVHWYQQLPGTAPKLLIYGNSNRPSGVPDRFSGSKSGTSASLAITGLQAEDEADYYCQSYDSSLSGYVFGTGTKLTVL
B17: YU577-B01 (scFv as screened) (scFv, V domains shown)
VH: EVQLVESGGGVVQPGRSLRLSCAASGFTFSSYGMHWVRQAPGKGLEWVAVISYDGSNKYYADSVKGRFTISRDNSKNTLYLQMNSLRAEDTAVYYCAKDVTYYYDSSGSPDFDYWGQGTLVTVSS
VL: DIQLTQSPSSLSASVGDRVTITCRASQGISNYLAWFQQKPGKAPKSLIYAASSLQSGVPSKFSGSGSGTDFTLTISSLQPEDFATYYCQQYNSYPYSFGQGTKVEIK

These binders were tested against lysozyme (assay: non-specific binding ELISA, lysozyme immobilized).
Experimental: DNA, LPS, lysozyme, and cell lysate were immobilized onto microtiter plates. Testing antibodies were added to the wells and incubated. Bound antibodies were detected via a fluorescently-labeled substrate. The fluorescence intensity was normalized to the signal of a control antibody (trastuzumab). Higher normalized signal correlates to stronger off-target or non-specific binding.

| Binder | normalized signal (fluorescence intensity normalized to trastuzumab) |
| --- | --- |
| B1 | 1.1 |
| B2 | 1.3 |
| B3 | 0.9 |
| B4 | 1.3 |
| B5 | 1 |

What follows are binders tested against T1, hCLDN18.1 (antigen of the scFv …) (assay: ELISA or flow cytometry, scFv screening).
Experimental: A naïve human antibody library was used to select CLDN18.2 antibodies and incubated with CLDN18.2 antigen or CLDN18.2-expressing cells for four rounds of biopanning, following the strategy described in Table 3. Monoclonal antibody clones were selected, produced as scFv antibodies, and screened using ELISA (clones identified from Strategy 1 or 2) or flow cytometry (clones identified from Strategy 3 or 4) to identify clones with hCLDN18.2 affinity and no hCLDN18.1 cross-reactivity. 188 such clones were and subsequently sequenced, yielding 68 unique antibodies. The unique antibodies were further screened using flow cytometry to identify clones with mCLDN18.2 affinity, yielding 50 human/mouse cross-reactive antibody clones.

| Binder | binding result |
| --- | --- |
| B6 | no binding |
| B7 | no binding |
| B8 | no binding |
| B9 | no binding |
| B10 | no binding |
| B11 | no binding |
| B12 | no binding |
| B13 | no binding |
| B14 | no binding |
| B15 | no binding |
| B16 | no binding |
| B17 | no binding |
